Results as given in patent publication US20240060082A1.

biological target: soybean's RPS5 homolog (soybean); experiment: cell-based or functional assay

**Q.** With “PBS1-R19 (modified Arabidopsis thaliana PBS1 with cleavage site R19, QMIFLR) (from UniProt Q9FE20 1-456)” as the substance, how does the resistance to the three soy rust strains in transgenic soybean, compared to control event G40 read?
**A.** > 85 % efficacy

**Q.** How did the resistance to the three soy rust strains in transgenic soybean, compared to control event G40 turn out when “PBS1-R20 (modified Arabidopsis thaliana PBS1 with cleavage site R20, IFLWSA) (from UniProt Q9FE20 1-456)” was run?
**A.** > 85 % efficacy

**Q.** With “PBS1-R17 (modified Arabidopsis thaliana PBS1 with cleavage site R17, QVFEFL) (from UniProt Q9FE20 1-456)” as the substance, how does the resistance to the three soy rust strains in transgenic soybean, compared to control event G40 read?
**A.** > 85 % efficacy
